In US20200157212A1 (Pfizer, published 2020):

T1: Rat ROBO2 on cells (rat, UniProt Q7TPD3 22-1469 (mouse entry))
T1 construct: overexpressed on HEK293 cells in flow cytometry; endogenous on rat SVZ neuronal explants in the SVZa assay
T1 chain: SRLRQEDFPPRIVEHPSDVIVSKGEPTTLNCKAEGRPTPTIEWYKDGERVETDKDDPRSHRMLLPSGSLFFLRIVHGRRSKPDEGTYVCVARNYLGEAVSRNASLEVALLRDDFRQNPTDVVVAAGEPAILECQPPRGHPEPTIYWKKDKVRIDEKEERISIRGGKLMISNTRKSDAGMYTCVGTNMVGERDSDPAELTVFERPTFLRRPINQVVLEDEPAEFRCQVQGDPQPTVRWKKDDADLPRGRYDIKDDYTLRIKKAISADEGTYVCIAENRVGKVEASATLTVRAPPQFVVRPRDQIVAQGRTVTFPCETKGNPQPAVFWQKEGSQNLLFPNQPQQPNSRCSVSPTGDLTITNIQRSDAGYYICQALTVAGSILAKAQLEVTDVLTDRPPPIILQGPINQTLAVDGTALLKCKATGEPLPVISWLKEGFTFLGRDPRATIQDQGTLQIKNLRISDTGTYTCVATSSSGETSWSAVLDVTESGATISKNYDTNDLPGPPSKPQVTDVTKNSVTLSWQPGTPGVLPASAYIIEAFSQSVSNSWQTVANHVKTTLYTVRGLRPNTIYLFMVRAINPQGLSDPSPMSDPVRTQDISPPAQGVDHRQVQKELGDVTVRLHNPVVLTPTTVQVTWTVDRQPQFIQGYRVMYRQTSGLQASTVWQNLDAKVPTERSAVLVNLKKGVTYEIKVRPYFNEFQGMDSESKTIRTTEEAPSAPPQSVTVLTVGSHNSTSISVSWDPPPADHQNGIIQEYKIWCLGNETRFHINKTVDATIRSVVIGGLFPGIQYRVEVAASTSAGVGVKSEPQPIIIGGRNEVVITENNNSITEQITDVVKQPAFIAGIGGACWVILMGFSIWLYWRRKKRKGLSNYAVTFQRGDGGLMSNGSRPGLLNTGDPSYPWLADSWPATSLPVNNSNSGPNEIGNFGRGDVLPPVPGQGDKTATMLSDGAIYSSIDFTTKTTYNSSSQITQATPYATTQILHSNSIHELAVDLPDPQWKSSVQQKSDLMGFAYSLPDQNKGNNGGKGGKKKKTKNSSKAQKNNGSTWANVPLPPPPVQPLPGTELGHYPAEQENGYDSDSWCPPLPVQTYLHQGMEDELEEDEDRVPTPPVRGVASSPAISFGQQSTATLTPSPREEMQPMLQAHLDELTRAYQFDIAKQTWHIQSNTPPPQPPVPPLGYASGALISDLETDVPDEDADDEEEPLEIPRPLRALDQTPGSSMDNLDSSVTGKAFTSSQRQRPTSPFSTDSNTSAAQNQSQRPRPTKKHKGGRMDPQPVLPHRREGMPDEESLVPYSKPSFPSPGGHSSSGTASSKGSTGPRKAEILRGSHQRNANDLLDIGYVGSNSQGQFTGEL


Biological target: T1, Rat ROBO2 on cells
Assay: flow cytometry, HEK293 cells
Protocol: Using flow cytometry, improvement in the binding EC₅₀ to human ROBO2 relative to the parental 93H2 was evaluated. Starting at 6.7 nM, 11-point, 3-fold dilution series were made for each antibody and used to stain HEK293 overexpressing human ROBO2 as described above for the ROBO2 fold selectivity (Example 2). […] In addition to measuring improved binding to human ROBO2, it was important to ensure that high affinity binding to both cynomolgus monkey ROBO2 and rat ROBO2 was maintained. Using HEK293 cells overexpressing either cynomolgus monkey ROBO2 or rat ROBO2, the relative dose-dependent binding of 93H2, Abcs25 and Abcs35 was evaluated as described above. High affinity binding to both cynomolgus monkey and rat ROBO2 was maintained in Abcs25 and Abcs35 (Table 4). […] Briefly, Abcs35 was immobilized to 300 resonance units (RU) on a CM5 chip. Association of ROBO2 Ig1-Ig2-His (ROBO2) was measured over 5 minutes and dissociation was followed for a period of 10 minutes.
The binding profile of Abcs35-J compared to Abcs35 was determined for human ROBO2, orthologs from cynomolgus monkey and rat, human ROBO1 and specificity for the RSK epitope from ROBO2 but not KSR from ROBO1. Binding was assessed by flow cytometry as described in Examples 2 (homolog specificity), Example 3 (ortholog reactivity) and Example 5 (RSK vs KSR epitope specificity). […] Binding of the antibodies was detected using a secondary fluorochrome conjugated anti-human IgG F(ab′)₂ antibody and samples analyzed on a Fortessa cytometer (BD Biosciences).

| Binder | EC50 [nM] |
| --- | --- |
| Abcs35 (antibody, human IgG1, kappa, fully human IgG1; VH of Ab96 with VL of Ab123) heavy: EVQLVQSGAEVKKPGASVKVSCKASGYTFTGYYMHWVRQAPGQGLEWMGWINPKNGDTEFPQKFQGRVTMTRDTSITTAYMDLSRLRSDDTAVYYCARESGDDAFDIWGQGTMVTVSSASTKGPSVFPLAPSSKSTSGGTAALGCLVKDYFPEPVTVSWNSGALTSGVHTFPAVLQSSGLYSLSSVVTVPSSSLGTQTYICNVNHKPSNTKVDKKVEPKSCDKTHTCPPCPAPEAAGAPSVFLFPPKPKDTLMISRTPEVTCVVVDVSHEDPEVKFNWYVDGVEVHNAKTKPREEQYNSTYRVVSVLTVLHQDWLNGKEYKCKVSNKALPAPIEKTISKAKGQPREPQVYTLPPSREEMTKNQVSLTCLVKGFYPSDIAVEWESNGQPENNYKTTPPVLDSDGSFFLYSKLTVDKSRWQQGNVFSCSVMHEALHNHYTQKSLSLSPGK light: DIVMTQSPSSLSASVGDRVTITCRASQSISSYLNWYQQKPGKAPKLLIYAASSLQSGVPSRFSGSGSGTDFTLTISSLQPEDFATYYCQQSVGLFFGGGTKVEIKRTVAAPSVFIFPPSDEQLKSGTASVVCLLNNFYPREAKVQWKVDNALQSGNSQESVTEQDSKDSTYSLSSTLTLSKADYEKHKVYACEVTHQGLSSPVTKSFNRGEC | 0.026 |
| Abcs35-J (antibody, human IgG1, kappa, germlined variant of Abcs35; also called ABCS-J) heavy: EVQLVQSGAEVKKPGASVKVSCKASGYTFTGYYMHWVRQAPGQGLEWMGWINPKNGDTEFPQKFQGRVTMTRDTSITTAYMELSRLRSDDTAVYYCARESGDDAFDIWGQGTMVTVSSASTKGPSVFPLAPSSKSTSGGTAALGCLVKDYFPEPVTVSWNSGALTSGVHTFPAVLQSSGLYSLSSVVTVPSSSLGTQTYICNVNHKPSNTKVDKKVEPKSCDKTHTCPPCPAPEAAGAPSVFLFPPKPKDTLMISRTPEVTCVVVDVSHEDPEVKFNWYVDGVEVHNAKTKPREEQYNSTYRVVSVLTVLHQDWLNGKEYKCKVSNKALPAPIEKTISKAKGQPREPQVYTLPPSREEMTKNQVSLTCLVKGFYPSDIAVEWESNGQPENNYKTTPPVLDSDGSFFLYSKLTVDKSRWQQGNVFSCSVMHEALHNHYTQKSLSLSPGK light: not shown | 0.026 |
